In the test the target is free FIXa (activated Factor IX) (UniProt P00740 47-191; P00740 227-461). Briefly: BLI.

B1: BIIB-9-621 (antibody, V domains shown)
VH: QLQLQESGPGLVKPSETLSLTCTVSGGSISSSSYYWGWIRQPPGKGLEWIGSIYYSGSTYYNPSLKSRVTISVDTSKNQFSLKLSSVTAADTAVYYCARDGSISGSRFDYWGQGTLVTVSS
VL: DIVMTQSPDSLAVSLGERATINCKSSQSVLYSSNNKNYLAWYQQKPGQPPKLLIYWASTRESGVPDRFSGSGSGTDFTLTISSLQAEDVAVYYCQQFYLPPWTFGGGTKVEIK
B1: the dissociation constant Kd was determined as 16.7 nM.

B2: BIIB-9-440 (antibody, V domains shown)
VH: QLQLQESGPGLVKPSETLSLTCTVSGGSISSSDYYWGWIRQPPGKGLEWIGSIYYSGSTYYNPSLKSRVTISVDTSKNQFSLKLSSVTAADTAVYYCARSPRHKVRGPNWFDPWGQGTLVTVSS
VL: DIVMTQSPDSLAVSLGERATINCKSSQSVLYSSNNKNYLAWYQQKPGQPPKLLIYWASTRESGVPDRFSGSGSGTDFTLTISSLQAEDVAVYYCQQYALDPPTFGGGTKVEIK
Molecule B2 yielded a Kd of 39.9 nM.

B3: BIIB-9-1264 (antibody, V domains shown)
VH: QVQLVQSGAEVKKPGASVKVSCKASGYTFTSYYMHWVRQAPGQGLEWMGIINPSGGSTSYAQKFQGRVTMTRDTSTSTVYMELSSLRSEDTAVYYCARDGDSSVYAFDYWGQGTLVTVSS
VL: DIQMTQSPSSLSASVGDRVTITCQASQDITNYLNWYQQKPGKAPKLLIYDASNLETGVPSRFSGSGSGTDFTFTISSLQPEDIATYYCQQVDDYPFTFGGGTKVEIK
Consider B3, for which the Kd was 14.9 nM.

B4: BIIB-9-569 (antibody, V domains shown)
VH: QVQLVQSGAEVKKPGASVKVSCKASGYTFTSYYMHWVRQAPGQGLEWMGIINPSGGSTSYAQKFQGRVTMTRDTSTSTVYMELSSLRSEDTAVYYCARDGSGYSPYSFDPWGQGTLVTVSS
VL: DIQMTQSPSSLSASVGDRVTITCQASQDISNYLNWYQQKPGKAPKLLIYDASNLATGVPSRFSGSGSGTDFTFTISSLQPEDIATYYCQQADDFPFTFGGGTKVEIK
In the case of B4, the dissociation constant Kd was found to be 7.05 nM.

B5: BIIB-9-883 (antibody, V domains shown)
VH: QVQLVQSGAEVKKPGASVKVSCKASGYTFTSYYMHWVRQAPGQGLEWMGIINPSGGSTSYAQKFQGRVTMTRDTSTSTVYMELSSLRSEDTAVYYCARDGRLSYTWDRWGQGTLVTVSS
VL: DIQMTQSPSSLSASVGDRVTITCQASQDITNYLNWYQQKPGKAPKLLIYDASNLETGVPSRFSGSGSGTDFTFTISSLQPEDIATYYCQQADHFPFTFGGGTKVEIK
As to B5, the affinity, expressed as Kd, was 17.5 nM.

B6: BIIB-9-480 (antibody, V domains shown)
VH: QVQLQESGPGLVKPSETLSLTCAVSGYSISSGYYWGWIRQPPGKGLEWIGSSYHSGSTYYNPSLKSRVTISVDTSKNQFSLKLSSVTAADTAVYYCARDQQDYGAFDIWGQGTMVTVSS
VL: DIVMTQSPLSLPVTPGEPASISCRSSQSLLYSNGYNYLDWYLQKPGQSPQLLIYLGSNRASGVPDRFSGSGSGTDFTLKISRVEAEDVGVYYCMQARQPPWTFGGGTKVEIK
Molecule B6 showed an equilibrium dissociation constant (Kd) of 7.51 nM.

B7: BIIB-9-1281 (antibody, V domains shown)
VH: QVQLQQWGAGLLKPSETLSLTCAVYGGSFSGYYWSWIRQPPGKGLEWIGEIDHSGSTNYNPSLKSRVTISVDTSKNQFSLKLSSVTAADTAVYYCARTTRSKYYGMDVWGQGTMVTVSS
VL: DIQMTQSPSTLSASVGDRVTITCRASQSISSWLAWYQQKPGKAPKLLIYKASSLESGVPSRFSGSGSGTDFTLTISSLQPEDFATYYCQQAISLPITFGGGTKVEIK
For the molecule B7, binding was characterised by a dissociation constant (Kd) of 16.8 nM.

B8: BIIB-9-605 (antibody, V domains shown)
VH: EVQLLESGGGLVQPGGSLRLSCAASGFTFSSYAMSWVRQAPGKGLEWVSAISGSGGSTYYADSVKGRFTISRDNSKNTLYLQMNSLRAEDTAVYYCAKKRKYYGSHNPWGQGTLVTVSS
VL: DIQMTQSPSSVSASVGDRVTITCRASQGISSWLAWYQQKPGKAPKLLIYAASSLQSGVPSRFSGSGSGTDFTLTISSLQPEDFATYYCQQADVFPFTFGGGTKVEIK
Molecule B8 had an equilibrium dissociation constant (Kd) of 8.63 nM.

B9: BIIB-9-607 (antibody, V domains shown)
VH: QLQLQESGPGLVKPSETLSLTCTVSGGSISSSSYYWGWIRQPPGKGLEWIGSISYSGSTYYNPSLKSRVTISVDTSKNQFSLKLSSVTAADTAVYYCARDRGYSYEDFDLWGRGTLVTVS
VL: DIQMTQSPSTLSASVGDRVTITCRASQSISSWLAWYQQKPGKAPKLLIYKASSLESGVPSRFSGSGSGTEFTLTISSLQPDDFATYYCQQAGRYPLTFGGGTKVEIK
The molecule B9 came in with a Kd of 6.57 nM.

B10: BIIB-9-1279 (antibody, V domains shown)
VH: QVQLVQSGAEVKKPGASVKVSCKASGYTFTSYYMHWVRQAPGQGLEWMGIINPSGGSTSYAQKFQGRVTMTRDTSTSTVYMELSSLRSEDTAVYYCARGPTDSSGYLDMDVWGKGTTVTVSS
VL: DIQMTQSPSSVSASVGDRVTITCRASQGISSWLAWYQQKPGKAPKLLIYAASSLQSGVPSRFSGSGSGTDFTLTISSLQPEDFATYYCQQASSFPPTFGGGTKVEIK
For B10, the dissociation constant Kd is 40.9 nM.

B11: BIIB-9-581 (antibody, V domains shown)
VH: QVQLVQSGAEVKKPGASVKVSCKASGYTFTSYYMHWVRQAPGQGLEWMGIINPSGGSTSYAQKFQGRVTMTRDTSTSTVYMELSSLRSEDTAVYYCARDPLYYREGYVFDYWGQGTLVTVSS
VL: DIQMTQSPSSLSASVGDRVTITCRASQSISSYLNWYQQKPGKAPKLLIYAASSLQSGVPSRFSGSGSGTDFTLTISSLQPEDFATYYCQQSDLFPFTFGGGTKVEIK
Molecule B11 returned a dissociation constant Kd of 12.9 nM.

B12: BIIB-9-887 (antibody, V domains shown)
VH: QVQLVQSGAEVKKPGASVKVSCKASGYTFTSYYMVWVRQAPGQGLEWMGIINPSGGSTSYAQKFQGRVTMTRDTSTSTVYMELSSLRSEDTAVYYCARDAEAHWIPGMDVWGQGTTVTVSS
VL: DIQMTQSPSSVSASVGDRVTITCRASQGISSWLAWYQQKPGKAPKLLIYAASSLQSGVPSRFSGSGSGTDFTLTISSLQPEDFATYYCQQASSFPFTFGGGTKVEIK
B12 showed a dissociation constant (Kd) of 6.1 nM.

B13: BIIB-9-479 (antibody, V domains shown)
VH: QVQLQESGPGLVKPSETLSLTCTVSGGSISSYYWSWIRQPPGKGLEWIGSIYYSGSTNYNPSLKSRVTISVDTSKNQFSLKLSSVTAADTAVYYCAREHYGDYPLFDIWGQGTMVTVSS
VL: DIQMTQSPSTLSASVGDRVTITCRASQSISSWLAWYQQKPGKAPKLLIYKASSLESGVPSRFSGSGSGTEFTLTISSLQPDDFATYYCQQYRILSPTFGGGTKVEIK
As to B13, binding was characterised by a dissociation constant (Kd) of 58.3 nM.

B14: BIIB-9-439 (antibody, V domains shown)
VH: QVQLVQSGAEVKKPGASVKVSCKASGYTFTSYYMHWVRQAPGQGLEWMGIINPSGGSTTYAQKFQGRVTMTRDTSTSTVYMELSSLRSEDTAVYYCAREATESYYYMDVWGKGTTVTVSS
VL: EIVMTQSPATLSLSPGERATLSCRASQSVSSYLAWYQQKPGQAPRLLIYDSSNRATGIPARFSGSGSGTDFTLTISSLEPEDFAVYYCQQRDNWPFTFGGGTKVEIK
B14 registered a Kd of 15.6 nM.

B15: BIIB-9-888 (antibody, V domains shown)
VH: QVQLVQSGAEVKKPGASVKVSCKASGYTFTSYYMHWVRQAPGQGLEWMGIINPSGGSTSYAQKFQGRVTMTRDTSTSTVYMELSSLRSEDTAVYYCARGPTDSSGYLDMDVWGKGTTVTVSS
VL: EIVMTQSPATLSVSPGERATLSCRASQSVSSNLAWYQQKPGQAPRLLIYGASTRATGIPARFSGSGSGTEFTLTISSLQPEDFAVYYCQQAFNWPPTFGGGTKVEIK
B15 returned a Kd of 65.6 nM.

B16: BIIB-9-1267 (antibody, V domains shown)
VH: QVQLVQSGAEVKKPGASVKVSCKASGYTFTSYYMHWVRQAPGQGLEWMGIINPSGGSTSYAQKFQGRVTMTRDTSTSTVYMELSSLRSEDTAVYYCARDHGWAIYGMDVWGQGTTVTVSS
VL: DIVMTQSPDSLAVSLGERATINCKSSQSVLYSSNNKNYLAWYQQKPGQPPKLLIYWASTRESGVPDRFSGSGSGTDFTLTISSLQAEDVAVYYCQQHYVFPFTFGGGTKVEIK
On to B16, for which the Kd was determined as 15.6 nM.

B17: BIIB-9-885 (antibody, V domains shown)
VH: QVQLVQSGAEVKKPGASVKVSCKASGYTFTSYYMHWVRQAPGQGLEWMGIINPSGGSTSYAQKFQGRVTMTRDTSTSTVYMELSSLRSEDTAVYYCAREGPMLDYPTYSNWFDPWGQGTLVTVSS
VL: EIVLTQSPATLSLSPGERATLSCRASQSVSSYLAWYQQKPGQAPRLLIYDASKRATGIPARFSGSGSGTDFTLTISSLEPEDFAVYYCQQRVIWPPTFGGGTKVEIK
For B17, the affinity, expressed as Kd, was 0.804 nM.

B18: BIIB-9-587 (antibody, V domains shown)
VH: QVQLVQSGAEVKKPGASVKVSCKASGYTFTSYYMHWVRQAPGQGLEWMGIINPSGGSTSYAQKFQGRVTMTRDTSTSTVYMELSSLRSEDTAVYYCARGPPGYEYYMDVWGKGTTVTVSS
VL: DIQMTQSPSSVSASVGDRVTITCRASQGISSWLAWYQQKPGKAPKLLIYAASSLQSGVPSRFSGSGSGTDFTLTISSLQPEDFATYYCQQADSFPFTFGGGTKVEIK
As to B18, the dissociation constant Kd amounted to 11.8 nM.

B19: BIIB-9-445 (antibody, V domains shown)
VH: QVQLVQSGAEVKKPGASVKVSCKASGYTFTSYYIHWVRQAPGQGLEWMGIINPSGGSTSYAQKFQGRVTMTRDTSTSTVYMELSSLRSEDTAVYYCARDVGQDYWFDLWGRGTLVTVSS
VL: EIVMTQSPATLSVSPGERATLSCRASQSVSSNLAWYQQKPGQAPRLLIYSASTRATGIPARFSGSGSGTEFTLTISSLQSEDFAVYYCQQYDNFPFTFGGGTKVEIK
In the case of B19, binding was put at a Kd of 20.2 nM.

B20: BIIB-9-461 (antibody, V domains shown)
VH: QVQLVQSGAEVKKPGASVKVSCKASGYTFTSYYMHWVRQAPGQGLEWMGIINPSGGSTSYAQKFQGRVTMTRDTSTSTVYMELSSLRSEDTAVYYCARGPTDSSGYLDMDVWGKGTTVTVSS
VL: EIVMTQSPATLSVSPGERATLSCRASQSVSSSLAWYQQKPGQAPRLLIYGASTRATGIPARFSGSGSGTEFTLTISSLQSEDFAVYYCQQHHHWPPTFGGGTKVEIK
On to B20, for which the Kd came to 43.1 nM.

B21: BIIB-9-1278 (antibody, V domains shown)
VH: QVQLVQSGAEVKKPGASVKVSCKASGYTFTSYYMVWVRQAPGQGLEWMGIINPSGGSTSYAQKFQGRVTMTRDTSTSTVYMELSSLRSEDTAVYYCARGPGELGYYLAFDIWGQGTMVTVSS
VL: EIVMTQSPATLSVSPGERATLSCRASQSVSSNLAWYQQKPGQAPRLLIYGASTRATGIPARFSGSGSGTEFTLTISSLQSEDFAVYYCQQHANFPPTFGGGTKVEIK
In turn, B21 registered a Kd of 66.2 nM.

B22: BIIB-9-611 (antibody, V domains shown)
VH: QVQLVQSGAEVKKPGASVKVSCKASGYTFTSYYMHWVRQAPGQGLEWMGIINPSGGSTSYAQKFQGRVTMTRDTSTSTVYMELSSLRSEDTAVYYCAREVISRVSYFDLWGRGTLVTVSS
VL: EIVMTQSPATLSVSPGERATLSCRASQSVSSNLAWYQQKPGQAPRLLIYGASTRATGIPARFSGSGSGTEFTLTISSLQSEDFAVYYCQQDNIHPYTFGGGTKVEIK
Turning to B22, the affinity, expressed as Kd, was 18.6 nM.

B23: BIIB-9-573 (antibody, V domains shown)
VH: QLQLQESGPGLVKPSETLSLTCTVSGGSISSSSYYWGWIRQPPGKGLEWIGSIYYSGSTYYNPSLKSRVTISVDTSKNQFSLKLSSVTAADTAVYYCARESKTKGYLDLWGRGTLVTVSS
VL: EIVLTQSPGTLSLSPGERATLSCRASQSVSSSFLAWYQQKPGQAPRLLIYGASSRATGIPDRFSGSGSGTDFTLTISRLEPEDFAVYYCQQSHSPPYTFGGGTKVEIK
Turning to B23, the Kd is 8.58 nM.
